The EC50 is the concentration at which the effect is half-maximal.

The assay deals with T1, recombinant human VISTA-Fc protein (human, UniProt Q9H7M9 33-194).
T1 sequence (looked up): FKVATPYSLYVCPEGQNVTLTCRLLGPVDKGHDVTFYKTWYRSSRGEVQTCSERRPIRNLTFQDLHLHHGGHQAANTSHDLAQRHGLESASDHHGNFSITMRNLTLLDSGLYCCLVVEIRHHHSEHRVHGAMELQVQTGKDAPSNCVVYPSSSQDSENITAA
Description: ELISA. Background: In an ELISA, binding on a coated surface is turned into a signal by an enzyme label.

B1: recombinant human VSIG3-Fc (Fc fusion, UniProt Q5DX21 23-241, looked up)
chain: LEVSESPGSIQVARGQPAVLPCTFTTSAALINLNVIWMVTPLSNANQPEQVILYQGGQMFDGAPRFHGRVGFTGTMPATNVSIFINNTQLSDTGTYQCLVNNLPDIGGRNIGVTGLTVLVPPSAPHCQIQGSQDIGSDVILLCSSEEGIPRPTYLWEKLDNTLKLPPTATQDQVQGTVTIRNISALSSGLYQCVASNAIGTSTCLLDLQVISPQPRNIG
modifications: biotin (biotinylated using Invitrogen kit #21455) in the inhibition assay
On to B1, for which the 50% effective concentration (EC50) came out at 24 nM.

These data come from PMC8823246 (Journal for Immunotherapy of Cancer, 2022).
